From the NTF2 design screens of Basanta et al. (2020) come the findings set out here.

This series can be described thus: protease stability score; higher = more stable; yeast display proteolysis, trypsin and chymotrypsin.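 Further: relative to predicted unfolded state with 0 unfolded-like and 1 meaning tenfold more protease.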
As for “TEDDRDFKLALELVEHHIKTGDEDDMSRLADPHVRIDDENETHHGREEFEEFVHRMIKRFKNIKWELKRTESQGDKIRIDFRIHVGDKTLRLIIIAEKVDGRWLIHTVIIN”, the protease stability score was found to be 1.35. Next, “STEEEELRDYLEILDHLWKTGDFDRLLNLIDPHVRLEVNGREHHGMRWFETIIRKLGHDNISVHINNEKVHIVDGRAHWEGKKILIYDGRFHDFHTHLFFLKIDGKWKLKEVEYH”: 1.26; “SEDEHELREFVNRYLHAMKTGDEDMLRDLLDPHVRFLIDGKNYHGREWVVAIFREFGIDRVEFELKDSEVQGDKVHIDGRVHINGQERSTEFRLEKYNGKWFLREEHYH”: 1.5; “DELHKLAEDHLEDFSRAIHTGDEDHLHHLIDPDVRYHQGDKNLHGRESWHEILERIDHVESEDVKMHRIERQGNKLIIDGEWHMRFVYNGQEKRVEMNTIVILLKVNGKWVNEAWHIR”: 0.463. Next, “DEEDEALERSRQLLIKILRTGDFEDLDRMLDPHVRIIIGDKEFHGREEAIKWVRERMKRMGAKVVEHFNEDDWRLQGDKIELDGEYNVRQGDKQYHLRVHIISLKVDGKWYFHSLEIK”: 0.232.

With “HHDEELSEHMAHNWLEALLTGDEDMLRELADPHVRYRFNGRQEIGWEHLLRFVNEIRIHELEPRHIQIDLVNGQVHVHIEGTIDGRIGDKDDRRRTTIVLNIRKINGKWILESISMEVE”, the protease stability score is 1.68. Next, “SEDDDHSEHMYRRILELWKTGNWRLFHELLDPNTRFEIGDKEFHGREEVVEYLRRDLEKFKNIRFHIRQHEVVGNKLHIDGEIIFNGKHEHVHIILLIVDGKIKEIRFESR”: 2.72; “EEEEKEADEEVRIMIKSLYTGDEDTVHEMADPNALVKVGDKTIHGMHLFLHTWIRRMEKHGIRVEVRLDDLEIQGEKIHIHLTLIYRFNGKDYPIEFEIHVNKINGQWRVSEIIEI”: 1.25; “DETTEHMVHFFKETLHAIRTGDFKAQEELFDPNARVDVGDYKFHGRETISEWLRRRNEQLGFKHIEIRINHVEYINGKISVIGSVDSDINGVRIRHERREEYVVINGVLTLVRLEHR”: 1.12. For the sequence “DEKRKLAEEIMRLLLHAYKTGDEELIHKLADPDTRVIINGVDLHGWEEMNRHLEEIIRQFDHWDLKIRDFRIQGDKYHIHGHLIHIQGDKHIRHDVNFHIVFVNGRQTSNHIDIH”, the protease stability score amounted to 1.41.

“DEEIEEARHVFEEVIHNIQTGDEDAYETLMDPNVRLQVGEKKFHGRREVKEWLHEIRVRRYEIRPKDSDVIGEKVIVHGRVRIDGHYNGRDIDLEVQVHRIIVKINGRWFVHEVRIG” returned a protease stability score of 1.28. “SEDDERMKKLLSDIWRLLMTGDEELWAKLADPNVRVDVNGRERHGREEVVKLLRELRHERRGRREEHHTVEDFRIYGDYSEVDYRYWVVFNGQREDVTMHIHIQVVNGRLKEIEIKMR” gave a protease stability score of 1.51.

“DEDREFLIEMIELFMKFLLTGDWEQFAHLADPNDRFNVNGRDNHGREVWIKEVEEMRIHSLHIEDQDAFNGVIHVDFRVEGHFDGRTHIQKVEIHIRIVNGRVKSVEHHIH” returned a protease stability score of 0.575.

The sequence “DETEEVMERVIQMLAHATHTGDWKDIRRLMDPNVKININGREIIGREELIRYLRELRETYHHFELKHVEVQGDKIIVHGRTLIRIEIGDKEIHLDSDVRYILWKVDGRWIMESIHIV” had a protease stability score of 2.18. Next, “HEDKQMMEEAVKLWIETSLTGDWRTFHRLADPHVKLQQGDKDLHGREDTRELMEKLGLDRVDIHIRKFRLYDGRIELHVEENFNGKVFEIFIDMRKVDGRWELHRVELR”: 1.43.

In turn, “DDREEELRKMTELMLKAEQTGDEDHWMHLADPHVRVIVNGREFIGREEWARHHEEHRRKVKNIRIHVRIRDSEVQGDKLILDTELELRIGDKTIIRDVEINMTIINGRLRSLEIRIK” came in with a protease stability score of 1.17. The sequence “SDLEEEINRFLTELLRDWETGNWKAFADLLDPHTRVLIDGKEHHGREIFLEHNHQLGIKHREFELKKFRIFENRVEFDGTLHLVYGDKRVHREIHIIILKIDGRWKITEIRFL” came in with a protease stability score of 1.54. The sequence “DEEEELMRSFLRLWFEAMITGDEHTLKELIDPDVRIEQGDKTHHGWEEFLRKFHKIKNMTIRHVELNHEHVQGDKIDLIITLHGHINGRHEELEVRLHARKVDGRWKMTRIHYQ” had a protease stability score of 2.66. The figure for “SEDENILRRVVNILLHVWMTGDEDSLKELIDPHARMDFDGQEVHGREEITRLIRTILHELGIKHFELHRHHIDVQGDKAHIEVDGVDDVDGRKVKVIIRMHVLKVNGRWKTRIVYFERQ” is 1.65; for “DEDEEEWHRFLELVHHFLRTGDWRRILDLIDPRALVHVGDKTFHGRHAIEHLLRHIHDRIPGMKQSLIIDHHDSQGDKIHLDVTLDLHFNGVEYHLRERTLELKINGKWVEKVREVD” it is 0.821.

Consider “DEDKEAARHFSKILIHLMLTGDEEMIERLLDPDVKVHLVINGVHIERHGREEMIKMHRELLEQIRWKDFILRDIKVVNGVAHVDGELRREQGDKHETVRVRIDIVVINGRIRQVHIEFR”, for which the protease stability score was 0.404. The figure for “DEEKELSKKLLEVFIKVMRTGDWRAFSERLDPHTRTDVNGVDIHGRENTLELLRRLEEEWGVSRVDVRIHDADHQGDYIKFDGIEIYNGVERRTRMVSEKFNGRWRNKIFILD” is 0.238; for “SEEDEFVHEMVEILLKMFLTGDFQHFKRLADPHVMFVFNGKRFHGRHWVLDELIRFPNIKFELTHYEFDDINGVVHINIFGQRDVDGKNENVELHFVVEKVDGRWKIHRIIFRLR” it is 1.11. The figure for “SEDREFAEKMLRIVSDLENTGDEEKARHLLDPNVRSVIDGQDLIGWHLRRHWLHELRIKSHRVDVHDIHVYNGQIEFNVREDGNIVVNGVEIRIELRTKMTFRKFDGQWYVKSIEIK” is 1.45. As for “DEEIEMLTKLAELFIRLWLTGNEDILESMADPRVRLEINGREHHGRDIVRKIFEHDRHHMRLESIQLHDRRVYNGRADLHGTQYGEINGKRETYTVRLILVIINGRIETVKVIVE”, the protease stability score stood at 1.14. For “TDDEEIWKIAIKMLRSAMHTGDEDTIKHLLDPNVRIEINGREIIGREIYAKHLREIRVDVERWEDHHIEVQGEFMHVKGRVVLTEEINGQEVREDVKLHVLVLKIDGQWRITSLYFR”, the protease stability score worked out at 0.754. “STREEETRRISDMIVKSLMTGDWRTFHDLLDPNVKVEINGKEMHGWKAWEDYIREMGIKVFDYHRIEVDENHLLMDGIDKVDGREHRSHYEITIIDGRIRRVEIRHK” came in with a protease stability score of 1.1. The figure for “SEEEHDTRNALKIIIRTLITGNEDERRKLLDPHVRLEFEGWHEHGRDAAHLLSFWYRERVDVLRDSKVEHVELQGDKIRMDIILISEYNGVHTSTHVHIVVEKFNGRWHMRSIFFL” is 1.16; for “DEDWHKLEETMRRFAKAMLTGDEDDLRKLADPDYRLDVNGRDLHGMESVKHWLDELRLVINDVKVREVHVIDGRLYLDTQVHSIETINGVEIRFVTETHVVIRKIDGKWINREMSIK” it is 0.285. The figure for “SEEEKHVIKMAEILLKSVLTGDWDKIKKMLDPNVKFHFHAENRHEEDHGMERVMDWMIKVRERFDVLEIEVTNSDVYGDKAVVDGRLINIIGDKRIETRVIIIIVVVDGRIHSIYFVIK” is 2.54; for “DEDTQTLEKIWRDFVRALRTGDEDHLSRLLDPNTRIDINGKESHGRERAEEVLREMFERIDHFHRVEIHDRREVNGRVNLDTRRDVEVNGVRDMYTTHLIILKVDGKWSMKTIELK” it is 1.33. Next, “SEDEETIEDFVKWFVRALKTGDEDTINEMIDPHVLLHINGKDYHGRELVWRHFEELGIKHTELRHLHTYNGRVELESRLIVDGRVHKVHFHARKVNGRWTVTKVEIR”: 2.61; “DEEEKLARHWMEVWHHAEHTGDFEEFNRLLDPHTRIEINFDGQRVELHGRHEYERFFRELGMEIRRIRLRDLHVVDGKWHIDGERDGEYDGKRIDSQIIIIYRVIDGRVKEIRKDDR”: 0.816; “DEDRKIFKLVFEITKHAWETGDEEHLDRLLDPNTRIEIGDKILHGREHIEEWVDRVDHLHLHHFRLDDYRYQGDKAIIHGHVNGTSVIDGRSERYTSTIDFIVLKVNGRWRLHSVRVT”: 1.41.

Turning to “DERESFIKEVMEQFNRDLLTGDEEHFKERADPDVKIIFDGRETHGWKVLHHLLREIRIRHMHIDDYDIQGDKARVHSTADVEYGDKEDELKIEIRLVVINGRLKEVSIIFR”, the protease stability score was determined as 1.16. The figure for “DEYREEARKLMHDTAKHLHTGDEDMTNHYLDPNVKIQINGQEIHGMDKFEHDSRRFKGAKNDVRFELRLIQVIGDKVRIDGELYVRIRVGDKEYSFEVKVDIVVTKVDGVWKIKEIKIE” is 0.806. Next, “DEERQESEEALRHSMELWATGDFESLSRNVDPNVRVEIGDKTFHGWEIAHELFHKIKNLTVHLEDHEIQGEKVTIHGVLNFNGKREHVRLYSKKVNGRWILEKVQVG”: 2.17. In turn, “SEEHHIIHKFLEDFLRSWITGDEKSMKELLDPHAKVDIRVNGRDVHPHGWEFLEWYKRFFKNAQFRVHDIDVQGNKVHLITEVVVNGQKEEMHIHLQVVDGRAERVETRIH” had a protease stability score of 1.9. For “DEEEETMRNIIMDWFRAMFTGDEERVNELLDPNARIEVGDKEWHGRDEFRKVLEHIRIHTRQIRIRRIDFFENRVHMDVQLDRELRFDGKTERIDVKLELFLVKIDGRWRFKETSVH”, the protease stability score turned out to be 2.57. Sequence “DEEKKLSDFAFRLLEENLRTGNEDDIRRYADPSVKIEVGDKTIHGMEAVSRVITEWRVHDLKIEREEIQGNKVHIDSNIDGQVGEKREHSLLILIMVKVNGRWVIKSIRIH” gave a protease stability score of 0.386.

“EESEKSAEDATRLIIHMLETGDERLMKHLMDPDVRIEIGEYISIGRENVEELFREWRSKLGIKHIEVKRVRIEVQGNKVHIEMDTRLIVGDKEEETILRVDVVKINGRWYIKSMRLEIR”: the protease stability score amounted to 1.95.

Take “DEEERLQEELTKRLIHDFETGDFEAILELFDPHVRVFVNGKDDHGWEMLERSWREMGIDHMQIRDFELHHINGRLEVRIRTEIRVGDKTMDTIIILNVQKYDGRWRIHKVEITIR”: the protease stability score stood at 1.24.

For the sequence “SEDDSDLEEYLRLWVKAWMTGDEDLLRTLLDPHTRFQSHVNGKEVERHGMEVVSHWLRKFKNIRFEVHHVHVVNGVLYHETRVKFDGVRIETELNAIVVDGKNKFLNIHIK”, the protease stability score turned out to be 0.299. In turn, “SEEREDSKKFLELVLTSWITGDWRQINKNFDPHARSHVGDKEIHGMDHVAHRMNEHLERADHIHFYLEDEHIQGNKIHVDGILQLVINGVDIRMRIRLVVLKINGRWQVHSIEIK” gave a protease stability score of 1.14. In the case of “SEEEHRVKELSELMLHWFKTGDEETMDHLMDPDARFELQVGDKEVHSHGWESVHKVLRRTLFWLGADHYNDKDFKHQGDKSKIDMTVHVGDKTVEVTLHLKIVDGRLKFLEIRVK”, the protease stability score came to 1.16.

For the sequence “DEDEELRRRRSEIVRKDWETGDWKSIEELADPHVKNHIGEYLAVGRENLVFVLEHFLKVLGVKHREIHSSELHIVNGRAEVHIDTRLVVNGRNIKTHVRFIFDKVNGRWVMHSVEFHVD”, the protease stability score worked out at 1.25. The figure for “DEEEEDIEKFFKEWTRNVLTGNWERLRELADPHAKAVVDGVETHGMESLDKLIDESERKLGVDHTHLESVHVQGEWIHFHLRIIIGDKYLKLHIHTLVIDGRVKSMNVEFHSD” is 1.16.
